According to patent CN115433277A:

B1: 命名为8A1的兔重组单克隆抗体 (anti-CD38 rabbit recombinant monoclonal antibody 8A1) (antibody, V domains shown)
VH: QSLEESGGDLVKPAGSLTLTCTASGFSFSTSYWICWVRQAPGKGLEWIACIYTGSGSTPYASWAKGRFTISKTSSTTVTLQVTSLTAADTATYFCARDPGVHSGTNLWGQGTLVSVSS
VL: DVVMTQTPASVSAAVGGTVTIKCQASEDINTLLAWYQQKPGQPPKLLIYLASNLASGVSSRFKGSRSGTEFTLTISDLECADAATYYCQCTYYGSTYGGTFGGGTEVVVK
B2: 命名为8H7的兔重组单克隆抗体 (anti-CD38 rabbit recombinant monoclonal antibody 8H7) (antibody, V domains shown)
VH: QSVKESEGGLFKPTDTLTLTCTVSGFSLSSYGVIWVRQAPGKGLEYIGFVAVGGTTYYANWAKSRSTITRNTNENTVTLKMTSLTAADTATYFCVRNGVSGSSDIWGPGTLVTVSS
VL: AYDMTQTPASVSEPVGGTVTIKCQASQSIYSYLSWYQQKLGQPPKLLIYSASTLASGVSSRFKGSGSGTEYTLTISGVECADAATYYCQQDYSGSNVDNTFGGGTEVVVK

Biological target: CD38 FC融合标签蛋白 (CD38 Fc fusion tag protein, expressed in 293F cells) (UniProt P28907)
Test: indirect ELISA, CD38 protein coated at 1 μg/ml, B cell culture supernatant, goat anti-rabbit IgG-HRP

Row | OD450 | Binder
1 | 2.23 OD450 | B1
2 | 1.78 OD450 | B2
